Target: GST-GABARAP (human), O95166
Test: microscopy-based on-bead protein-protein interaction assay
Details: remark: other sources report otherwise

Sequence of GST-GABARAP (human), O95166 (O95166 whole entry): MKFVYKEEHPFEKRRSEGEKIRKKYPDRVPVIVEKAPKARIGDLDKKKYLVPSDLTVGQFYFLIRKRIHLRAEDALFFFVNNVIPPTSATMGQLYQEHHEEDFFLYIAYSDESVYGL

percent recruited less than wild type C53: 78%
B1: mCherry tagged HsC53^sAIM, Q96JB5 1-506 (natural protein)
chain: MEDHQHVPIDIQTSKLLDWLVDRRHCSLKWQSLVLTIREKINAAIQDMPESEEIAQLLSGSYIHYFHCLRILDLLKGTEASTKNIFGRYSSQRMKDWQEIIALYEKDNTYLVELSSLLVRNVNYEIPSLKKQIAKCQQLQQEYSRKEEECQAGAAEMREQFYHSCKQYGITGENVRGELLALVKDLPSQLAEIGAAAQQSLGEAIDVYQASVGFVCESPTEQVLPMLRFVQKRGNSTVYEWRTGTEPSVVERPHLEELPEQVAEDAIDAGDFGVEAVSEGTDSGISAEAAGIDAGIFPESDSKDPGGDGIDAGDDAVALQITVLEAGTQAPEGVARGPDALTLLEYTETRNQFLDELMELEIFLAQRAVELSEEADVLSVSQFQLAPAILQGQTKEKMVTMVSVLEDLIGKLTSLQLQHLFMILASPRYVDRVTEFLQQKLKQSQLLALKKELMVQKQQEALEEQAALEPKLDLLLEKTKELQKLIEADISKRYSGRPVNLMGTSL

Source: publication doi:10.1101/2022.04.26.489478
